Laboratory results: PMC8327961, “Nse5/6 inhibits the Smc5/6 ATPase and modulates DNA substrate binding” (The EMBO Journal, 2021)
Values belong to the molecule of their own block, whether it stands above or below them.

Assays:
[1] = biological target: Smc5/6 octamer (hexamer plus Nse5/6) (Saccharomyces cerevisiae, UniProt Q08204;Q12749;Q07913;P38632;Q05541;P43124;Q03718;P40026 …); assay: fluorescence anisotropy; conditions: ATPase buffer: 10 mM Hepes-KOH pH 7.5, 150 mM K-OAc, 2 mM MgCl2, 20% glycerol; anisotropy at 25 C; plasmid pulldown bound at room temperature, high-salt buffer …
[2] = biological target: Smc5/6 hexamer (Smc5, Smc6, Nse1, Nse2, Nse3, Nse4) (Saccharomyces cerevisiae) (UniProt Q08204+Q12749+Q07913+P38632+Q05541+P43124); assay: fluorescence anisotropy; conditions: ATPase buffer: 10 mM Hepes-KOH pH 7.5, 150 mM K-OAc, 2 mM MgCl2, 20% glycerol; anisotropy at 25 C; plasmid pulldown bound at room temperature, high-salt buffer …
[3] = biological target: T1, Smc6 (Twin-Strep-tag removed, as in the octamer for lysine cross-linking) (S. cerevisiae, UniProt Q12749 1-1114); assay: cross-linking; XL-MS with PhoX (0.25 mM, 20 min, RT) on the octamer, 1.6 µM; ATPase buffer (10 mM Hepes-KOH pH 7.5, 150 mM potassium acetate, 2 mM MgCl2, 20% glycerol); without and with 2 mM ATP and 16 nM plasmid DNA; wild-type and Smc5(EQ)/Smc6(EQ) octamers; conditions: both partners purified
T1 construct: Smc6, S. cerevisiae; subunit of the octamer used for XL-MS; source: E. coli (DE3) Rosetta, purified as part of the hexamer; tag removed by HRV-3C before SEC of the octamer; not shown: Twin-Strep (after a 3C site), C-terminal, cleaved
T1 sequence (looked up): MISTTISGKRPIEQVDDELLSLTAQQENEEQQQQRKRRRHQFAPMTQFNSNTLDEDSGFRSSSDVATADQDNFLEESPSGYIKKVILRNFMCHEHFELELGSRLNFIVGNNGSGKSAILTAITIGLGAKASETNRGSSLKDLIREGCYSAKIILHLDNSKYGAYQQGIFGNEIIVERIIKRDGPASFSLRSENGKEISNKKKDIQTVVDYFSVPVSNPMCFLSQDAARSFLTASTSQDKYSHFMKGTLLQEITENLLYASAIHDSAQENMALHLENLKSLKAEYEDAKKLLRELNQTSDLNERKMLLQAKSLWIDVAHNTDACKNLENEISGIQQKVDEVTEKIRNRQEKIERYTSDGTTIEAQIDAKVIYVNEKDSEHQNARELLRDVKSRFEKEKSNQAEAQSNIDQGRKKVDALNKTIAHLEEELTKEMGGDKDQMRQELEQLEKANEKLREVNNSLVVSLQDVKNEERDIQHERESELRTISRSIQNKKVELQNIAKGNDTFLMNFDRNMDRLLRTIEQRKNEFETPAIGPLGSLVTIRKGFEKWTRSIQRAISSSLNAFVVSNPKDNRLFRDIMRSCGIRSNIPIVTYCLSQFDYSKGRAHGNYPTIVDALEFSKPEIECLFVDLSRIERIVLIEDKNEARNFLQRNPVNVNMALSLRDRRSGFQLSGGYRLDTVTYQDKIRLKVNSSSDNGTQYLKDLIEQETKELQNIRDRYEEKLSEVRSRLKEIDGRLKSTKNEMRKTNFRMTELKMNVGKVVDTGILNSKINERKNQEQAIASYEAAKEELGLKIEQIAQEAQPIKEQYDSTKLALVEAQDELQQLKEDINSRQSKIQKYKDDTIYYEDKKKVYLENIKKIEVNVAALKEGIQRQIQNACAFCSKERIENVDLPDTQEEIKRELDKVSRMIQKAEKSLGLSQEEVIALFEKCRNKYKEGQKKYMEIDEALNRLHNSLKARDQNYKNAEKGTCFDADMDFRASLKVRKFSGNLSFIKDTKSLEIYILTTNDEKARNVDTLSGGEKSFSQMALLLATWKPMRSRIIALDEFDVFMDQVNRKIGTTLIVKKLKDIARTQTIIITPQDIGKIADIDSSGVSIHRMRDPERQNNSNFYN

[4] = biological target: T1, Smc6 (Twin-Strep-tag removed, as in the …); assay: cross-linking; XL-MS with the lysine-reactive PhoX (0.25 mM, 20 min, RT) on the reconstituted octamer, 1.6 µM; salt buffer 20 mM Hepes-KOH pH 7.5, 250 mM NaCl; conditions: both partners purified
Nse1/3/4 sub-complex = biological target: T2, Nse1/3/4 sub-complex (S. cerevisiae, UniProt Q07913 1-336; Q05541 1-303; P43124 1-402); assay: as above; conditions: both partners purified
T2 construct: Nse1, S. cerevisiae; Nse3, S. cerevisiae; Nse4, S. cerevisiae; used where the text names only the module as the partner of a cross-link and not which subunit; also called Nse1/3/4 module; Nse4/3/1 module; source: E. coli (DE3) Rosetta, purified as part of the hexamer and octamer; copies: + +
T2 sequence (looked up) 1: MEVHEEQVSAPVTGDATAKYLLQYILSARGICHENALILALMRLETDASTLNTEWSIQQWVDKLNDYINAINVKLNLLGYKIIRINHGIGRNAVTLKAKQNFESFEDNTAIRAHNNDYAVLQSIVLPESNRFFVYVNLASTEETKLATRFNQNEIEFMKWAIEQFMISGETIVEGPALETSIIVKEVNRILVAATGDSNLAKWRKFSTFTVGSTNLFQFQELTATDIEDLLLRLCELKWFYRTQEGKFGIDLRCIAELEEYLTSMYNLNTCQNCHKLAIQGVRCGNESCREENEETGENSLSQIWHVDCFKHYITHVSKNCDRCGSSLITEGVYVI
T2 sequence (looked up) 2: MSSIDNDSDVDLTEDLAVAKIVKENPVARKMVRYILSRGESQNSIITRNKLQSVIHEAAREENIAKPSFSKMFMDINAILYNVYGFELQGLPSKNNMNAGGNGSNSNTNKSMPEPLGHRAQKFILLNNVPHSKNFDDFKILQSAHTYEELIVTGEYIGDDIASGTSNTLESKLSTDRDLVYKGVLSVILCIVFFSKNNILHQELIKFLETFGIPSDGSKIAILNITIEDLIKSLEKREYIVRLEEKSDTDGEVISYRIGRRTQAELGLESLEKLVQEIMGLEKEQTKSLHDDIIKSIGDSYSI
T2 sequence (looked up) 3: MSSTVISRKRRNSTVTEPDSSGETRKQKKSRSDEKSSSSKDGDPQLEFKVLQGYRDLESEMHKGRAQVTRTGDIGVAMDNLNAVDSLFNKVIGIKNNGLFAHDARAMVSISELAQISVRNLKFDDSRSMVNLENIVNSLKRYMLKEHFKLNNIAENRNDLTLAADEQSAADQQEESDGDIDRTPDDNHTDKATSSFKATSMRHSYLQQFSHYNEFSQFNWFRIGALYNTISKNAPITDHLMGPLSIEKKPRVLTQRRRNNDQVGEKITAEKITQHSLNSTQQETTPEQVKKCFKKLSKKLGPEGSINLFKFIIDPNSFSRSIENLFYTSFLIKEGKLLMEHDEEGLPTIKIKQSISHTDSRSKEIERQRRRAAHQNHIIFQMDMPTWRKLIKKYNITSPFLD

Smc5/6 octamer (hexamer plus Nse5/6), sequence (P40026 whole entry, one chain of several): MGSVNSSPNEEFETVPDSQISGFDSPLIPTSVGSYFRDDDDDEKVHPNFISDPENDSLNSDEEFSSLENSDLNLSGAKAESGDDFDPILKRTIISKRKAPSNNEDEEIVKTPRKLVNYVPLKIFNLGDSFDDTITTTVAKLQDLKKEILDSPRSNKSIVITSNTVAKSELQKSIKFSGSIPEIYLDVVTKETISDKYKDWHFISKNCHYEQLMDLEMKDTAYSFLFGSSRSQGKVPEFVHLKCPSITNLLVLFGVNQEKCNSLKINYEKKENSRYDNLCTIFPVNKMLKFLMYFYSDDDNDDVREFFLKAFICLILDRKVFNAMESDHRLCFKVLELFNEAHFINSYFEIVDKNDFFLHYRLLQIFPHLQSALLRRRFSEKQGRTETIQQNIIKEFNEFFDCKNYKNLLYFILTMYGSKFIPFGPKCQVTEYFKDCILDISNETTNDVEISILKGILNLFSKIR

Molecule: 40-mer ssDNA
Kd [1]: 100 nM
Kd [2]: 150 nM

B1: Nse4 (natural protein, S. cerevisiae, UniProt P43124 1-402, looked up)
chain: T2 sequence (looked up) 3
notes: Nse4, S. cerevisiae; also called kleisin Nse4; source: E. coli (DE3) Rosetta, co-expressed with the other subunits of the hexamer, purified as part of the complex
binding result [3]: binds

B2: Smc5 (natural protein, S. cerevisiae, UniProt Q08204 1-1093, looked up)
chain: MTSLIDLGRYVERTHHGEDTEPRSKRVKIAKPDLSSFQPGSIIKIRLQDFVTYTLTEFNLSPSLNMIIGPNGSGKSTFVCAVCLGLAGKPEYIGRSKKVEDFIKNGQDVSKIEITLKNSPNVTDIEYIDARDETIKITRIITRSKRRSDYLINDYQVSESVVKTLVAQLNIQLDNLCQFLSQERVEEFARLKSVKLLVETIRSIDASLLDVLDELRELQGNEQSLQKDLDFKKAKIVHLRQESDKLRKSVESLRDFQNKKGEIELHSQLLPYVKVKDHKEKLNIYKEEYERAKANLRAILKDKKPFANTKKTLENQVEELTEKCSLKTDEFLKAKEKINEIFEKLNTIRDEVIKKKNQNEYYRGRTKKLQATIISTKEDFLRSQEILAQTHLPEKSVFEDIDIKRKEIINKEGEIRDLISEIDAKANAINHEMRSIQRQAESKTKSLTTTDKIGILNQDQDLKEVRDAVLMVREHPEMKDKILEPPIMTVSAINAQFAAYLAQCVDYNTSKALTVVDSDSYKLFANPILDKFKVNLRELSSADTTPPVPAETVRDLGFEGYLSDFITGDKRVMKMLCQTSKIHTIPVSRRELTPAQIKKLITPRPNGKILFKRIIHGNRLVDIKQSAYGSKQVFPTDVSIKQTNFYQGSIMSNEQKIRIENEIINLKNEYNDRKSTLDALSNQKSGYRHELSELASKNDDINREAHQLNEIRKKYTMRKSTIETLREKLDQLKREARKDVSQKIKDIDDQIQQLLLKQRHLLSKMASSMKSLKNCQKELISTQILQFEAQNMDVSMNDVIGFFNEREADLKSQYEDKKKFVKEMRDTPEFQSWMREIRSYDQDTKEKLNKVAEKYEEEGNFNLSFVQDVLDKLESEIAMVNHDESAVTILDQVTAELRELEHTVPQQSKDLETIKAKLKEDHAVLEPKLDDIVSKISARFARLFNNVGSAGAVRLEKPKDYAEWKIEIMVKFRDNAPLKKLDSHTQSGGERAVSTVLYMIALQEFTSAPFRVVDEINQGMDSRNERIVHKAMVENACAENTSQYFLITPKLLTGLHYHEKMRIHCVMAGSWIPNPSEDPKMIHFGETSNYSFD
notes: Smc5, S. cerevisiae; stood in the assays as a subunit of the hexamer or octamer; source: E. coli (DE3) Rosetta, co-expressed with the other subunits of the hexamer, purified as part of the complex
binding result [4]: binds

Further lines, results first:

binding result [3]: binds
B3: Nse2 (natural protein, S. cerevisiae, UniProt P38632 1-267, looked up)
chain: MALNDNPIPKSVPLHPKSGKYFHNLHARDLSNIYQQCYKQIDETINQLVDSTSPSTIGIEEQVADITSTYKLLSTYESESNSFDEHIKDLKKNFKQSSDACPQIDLSTWDKYRTGELTAPKLSELYLNMPTPEPATMVNNTDTLKILKVLPYIWNDPTCVIPDLQNPADEDDLQIEGGKIELTCPITCKPYEAPLISRKCNHVFDRDGIQNYLQGYTTRDCPQAACSQVVSMRDFVRDPIMELRCKIAKMKESQEQDKRSSQAIDVL
notes: Nse2, S. cerevisiae; source: E. coli (DE3) Rosetta, co-expressed with the other subunits of the hexamer, purified as part of the complex

binding result [4]: binds
binding result (Nse1/3/4 sub-complex): binds
B4: Nse5-AviTag (from Nse5-AviTag-3C-Twin-Strep, Twin-Strep removed) (natural protein, S. cerevisiae, UniProt Q03718 1-556, looked up)
chain: MDGALINSVLYVSPRNGAHYFVELTEKHLLAFEMLNSMCLLENYDHVLLFLECQFGKSHNLAVIPFDIILVLFTLSTLSEYYKEPILRANDPYNTSRETLSRRALKLLQKYLAILKEFDSEQYNLYDLELLRCQFFLAIDTLTPKKQKWGFDRFRRTKSESGVTYRQNASVDPELDQAKTFKNPYRSYISCLEQRNTILGNRLLNLKLNEPGEFINMILWTLSNSLQESTPLFLSSHEIWMPLLEILIDLFSCRQDYFIQHEVAQNVSKSLFVQRLSESPLAVFFESLNTRNFANRFSEYVFLNCDYKLPSDNYATPVHPVYNGENTIVDTYIPTIKCSPLYKSQKSLALRRKLIGSCFKLLLRVPDGHRLITPRIVADDVIQGISRTLASFNDILQFKKFFMTENLSQESYFIPLLAEGTLSEILKDTQECVVILTLVENLSDGVSFCNEVIGLVKSKCFAFTEQCSQASYEEAVLNIEKCDVCLLVLLRYLLHLIGTEAILDAKEQLEMLHAIEKNDSGRRQWAKALNLGNDPPLLYPIVSQMFGVHDKSVIIE
notes: Nse5, S. cerevisiae, full length; subunit of the octamer used for XL-MS; the AviTag lies before the 3C site and should remain; source: E. coli (DE3) Rosetta, co-expressed with Nse6, purified (StrepTrap, heparin, SEC); Twin-Strep removed by HRV-3C; not shown: Twin-Strep (after a 3C site), C-terminal, cleaved

binding result [3]: binds
B5: Nse3 (natural protein, S. cerevisiae, UniProt Q05541 1-303, looked up)
chain: T2 sequence (looked up) 2
notes: Nse3, S. cerevisiae; source: E. coli (DE3) Rosetta, co-expressed with the other subunits of the hexamer, purified as part of the complex
